# Reference: PMC9929602
# Target: tetraspanin CD81 (human (endogenous in THP-1)) (UniProt P60033)
# Chain of UniProt P60033 (P60033 whole entry): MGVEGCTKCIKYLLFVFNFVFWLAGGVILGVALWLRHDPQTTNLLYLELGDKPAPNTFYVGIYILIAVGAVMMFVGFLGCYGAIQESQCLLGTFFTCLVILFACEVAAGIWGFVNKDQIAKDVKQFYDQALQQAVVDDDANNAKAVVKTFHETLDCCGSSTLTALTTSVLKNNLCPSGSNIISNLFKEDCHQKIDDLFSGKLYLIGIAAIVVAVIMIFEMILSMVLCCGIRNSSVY
substance,measurement,value
AhpC-6×His (recombinant M. abscessus AhpC) (enzyme),"reduction of infectivity of Mab WT (CFU) in THP-1 cells pre-incubated with 2 μg soluble AhpC-His, against untreated cells or cells pre-incubated with Hsp16.7-His",30%
